# According to publication doi:10.1101/2024.07.03.601496:
# What was measured:
# [1] = biological target: Exd (for EMSA) (Drosophila) (UniProt P40427); test: native gel or EMSA
# [2] = biological target: Hth (for EMSA) (Drosophila) (UniProt O46339); test: native gel or EMSA
# UniProt O46339, sequence (O46339 whole entry): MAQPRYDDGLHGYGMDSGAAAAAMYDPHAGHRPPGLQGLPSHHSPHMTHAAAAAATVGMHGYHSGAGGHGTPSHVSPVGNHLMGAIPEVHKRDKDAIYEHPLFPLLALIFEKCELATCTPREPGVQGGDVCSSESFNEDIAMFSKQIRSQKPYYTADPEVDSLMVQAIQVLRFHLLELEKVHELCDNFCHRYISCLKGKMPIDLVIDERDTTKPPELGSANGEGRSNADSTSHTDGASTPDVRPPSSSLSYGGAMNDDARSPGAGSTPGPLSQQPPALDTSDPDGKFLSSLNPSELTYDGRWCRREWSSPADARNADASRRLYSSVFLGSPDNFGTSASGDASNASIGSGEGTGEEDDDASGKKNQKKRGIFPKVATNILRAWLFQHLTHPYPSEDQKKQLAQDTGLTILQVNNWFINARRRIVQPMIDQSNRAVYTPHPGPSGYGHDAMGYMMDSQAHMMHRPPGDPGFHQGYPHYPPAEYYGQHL
# UniProt P40427, sequence (P40427 whole entry): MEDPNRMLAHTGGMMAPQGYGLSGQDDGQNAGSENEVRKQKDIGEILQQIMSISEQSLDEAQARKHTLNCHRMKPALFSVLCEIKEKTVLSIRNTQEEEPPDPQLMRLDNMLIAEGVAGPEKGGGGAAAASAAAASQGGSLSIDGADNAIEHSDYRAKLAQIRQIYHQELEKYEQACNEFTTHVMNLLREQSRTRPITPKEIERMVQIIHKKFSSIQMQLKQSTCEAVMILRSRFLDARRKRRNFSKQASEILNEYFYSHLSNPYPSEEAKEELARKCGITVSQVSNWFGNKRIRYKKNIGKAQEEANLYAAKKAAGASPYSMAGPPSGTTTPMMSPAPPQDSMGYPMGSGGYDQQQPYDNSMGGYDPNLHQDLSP
percent reduction of the trimeric complex against wild type Abd-B [1],percent reduction of the trimeric complex against wild type Abd-B [2],Substance
25%,25%,"Abd-B^QR (QR>AA, for EMSA) (from UniProt P09087 1-493) (natural protein)"
56%,56%,"Abd-B^W (W>A, for EMSA) (from UniProt P09087 1-493) (natural protein)"
